Consider seven molecules from patent publication US20230011916A1 (BEIGENE, published 2023).

Where a chain is given by its changes, count along the chain named. In names and notes the source's numbering stands.

Test [1] deals with T1, full-length human OX40 expressed on HuT78 cells (HuT78/OX40) (human, UniProt P43489 29-277).
T1 sequence: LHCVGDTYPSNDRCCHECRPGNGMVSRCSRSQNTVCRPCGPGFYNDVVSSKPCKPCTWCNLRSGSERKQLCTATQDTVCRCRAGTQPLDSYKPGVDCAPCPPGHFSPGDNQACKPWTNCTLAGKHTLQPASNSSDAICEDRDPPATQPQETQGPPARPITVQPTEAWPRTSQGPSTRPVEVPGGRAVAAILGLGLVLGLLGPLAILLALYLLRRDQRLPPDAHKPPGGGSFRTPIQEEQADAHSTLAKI
Nature of the test: flow cytometry on live HuT78/OX40 cells; Mean. As to the method:
(§1) To evaluate the binding activity of anti-OX40 antibodies to bind OX40 expressed on the surface of live cells, HuT78 cells were transfected with human OX40 as described in Example 1 to create an OX40 expressing line. Live HuT78/OX40 cells were seeded in 96-well plate and were incubated with a serial dilution of various anti-OX40 antibodies. Goat anti-Human IgG-FITC (Cat: A0556, Beyotime) was used as a secondary antibody to detect antibody binding to the cell surface. EC₅₀ values for dose-dependent binding to human OX40 were determined by fitting the dose-response data to the four-parameter logistic model with GraphPad Prism.

The target in test [2] is T1, full-length human OX40 expressed on …. Nature of the test: flow cytometry on live HuT78/OX40 cells; Test 1. As to the method: as §1
For test [3] the target is unchanged. The test can be described thus: flow cytometry on live HuT78/OX40 cells; Test 2. The procedure:
as §1

For test [4], the target named is T2, recombinant OX40 protein with a His tag (Cat: 10481-H08H, Sino Biological) (UniProt P43489 29-216).
T2 construct: Bought protein; also called OX40-His (bought); not shown: His tag
T2 sequence (looked up): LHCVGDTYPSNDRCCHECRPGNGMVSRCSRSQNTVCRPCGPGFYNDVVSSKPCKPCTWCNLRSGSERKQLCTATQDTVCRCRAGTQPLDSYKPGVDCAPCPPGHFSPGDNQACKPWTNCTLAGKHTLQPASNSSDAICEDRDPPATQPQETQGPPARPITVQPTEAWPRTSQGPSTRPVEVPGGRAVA
The test can be described thus: SPR, BIAcore T-200; antibody captured by anti-human IgG, OX40-His flowed; Mean. An excerpt: (§2) The anti-OX40 antibodies were characterized for their binding kinetics and affinity by SPR assays using BIAcore™ T-200 (GE Life Sciences). Briefly, anti-human IgG antibody was immobilized on an activated CM5 biosensorchip (Cat: BR100530, GE Life Sciences). An antibody with human IgG Fc region was flowed over the chip surface and captured by anti-human IgG antibody. Then a serial dilution of recombinant OX40 protein with a His tag (Cat: 10481-H08H, Sino Biological) was flowed over the chip surface and changes in surface plasmon resonance signals were analyzed to calculate the association rates (ka) and dissociation rates (kd) by using the one-to-one Langmuir binding model (BIA Evaluation Software, GE Life Sciences). The equilibrium dissociation constant (KD) was calculated as the ratio kd/ka.

Test [5] deals with T2, recombinant OX40 protein with a His tag …. The test can be described thus: SPR, BIAcore T-200; antibody captured by anti-human IgG, OX40-His flowed; Test 1.
From the text: as §2

For test [6] the target is unchanged. Nature of the test: SPR, BIAcore T-200; antibody captured by anti-human IgG, OX40-His flowed; Test 2.
From the text: as §2

For test [7], the target named is T1, full-length human OX40 expressed on …. Nature of the test: FACS; cells not named on the sheet, HuT78/OX40 cells as in Example 5.
The target in test [8] is T3, human OX40/IgG1 fusion H153A (human, UniProt P43489 29-216).
T3 construct: not shown: Fc domain of human IgG1 wild type heavy chain
T3 chain: T2 sequence (looked up) with H125A
The test can be described thus: SPR, BIAcore 8K, OX40/IgG1 mutant immobilized, 445-3 Fab flowed. As to the method:
Briefly, OX40 mutants and wild type OX40 were immobilized on a CM5 biosensor chip (Cat: BR100530, GE Life Sciences) using EDC and NHS. […] The changes in surface plasmon resonance signals were analyzed to calculate the association rates (ka) and dissociation rates (kd) by using the one-to-one Langmuir binding model (BIA Evaluation Software, GE Life Sciences). The equilibrium dissociation constant (KD) was calculated as the ratio kd/ka. The KD shift fold of mutant was calculated as the ratio Mutant KD/WT KD.

Test [9] addresses T1, full-length human OX40 expressed on …. Nature of the test: FACS; cells not named on the sheet, HuT78/OX40 cells as in Example 5. This is another data set of the same source.
Test [10] shares this target. The test can be described thus: FACS; against 445-2.
The target in test [11] is T2, recombinant OX40 protein with a His tag …. Nature of the test: Biacore (SPR); antigen not named on the sheet, OX40-His as in Example 4.
Test [12] concerns the target T1, full-length human OX40 expressed on …. The test can be described thus: flow cytometry on HuT78/OX40 cells. The procedure: (§3) Goat anti-Human IgG-FITC (Cat: A0556, Beyotime) was used as a secondary antibody for detection. EC₅₀ values for dose-dependent binding to human and cynomolgus monkey native OX40s were determined by fitting the dose-response data to the four-parameter logistic model with GraphPad Prism.

Test [13] deals with T4, cynomolgus OX40 expressed on HuT78 cells (HuT78/cynoOX40) (cynomolgus monkey).
T4 construct: whole, on cells; also called cynomolgus monkey OX40
Nature of the test: flow cytometry on HuT78/cynoOX40 cells. As to the method:
as §3

The target in test [14] is T2, recombinant OX40 protein with a His tag …. The test can be described thus: Biacore; against 445-2.

B1: ch445 (antibody, V domains shown)
VH: EVQLQQSGPELVKPGASVKMSCKASGYKFTSYIIHWVKQKPGQGLEWIGYINPYNDGTRYNEKFKGKATLTSDKSSSTAYMEYSSLTSEDSAVYYCARGYYGSSYAMDYWGQGTSVTVSS
VL: DIQMTQTTSSLSASLGDRVTISCSASQGISNYLNWYQQKPDGTIKLLIYDTSTLYSGVPSRFSGSGSGTDYFLTISNLEPEDIATYYCQQYSKLPYTFGGGTKLEKK
notes: also called Mu445 variable domains fused to human IgG1wt/kappa constant regions
On to B1, for which the EC50 in test [1] amounted to 0.299 µg/mL; in test [2], 0.321 µg/mL; in test [3] it was 0.277 µg/mL. Moreover, in [1], the “Top(MFI)” value was determined as 725 MFI. For the same molecule, the results for the Ka in [4], in [5] and in [6] were 1.41e+08 M⁻¹, 1.22e+08 M⁻¹ and 1.59e+08 M⁻¹, respectively. The Kd in test [4] was found to be 7.28 nM; in test [5] it was 8.26 nM; in test [6] it was 6.3 nM. Further, the koff in test [5] was 0.00143 s⁻¹; in test [6], 0.00167 s⁻¹. Also, the kon in test [5] worked out at 174000 M⁻¹ s⁻¹; in test [6], 265000 M⁻¹ s⁻¹.

B2: 445-2 (antibody, V domains shown)
VH: QVQLVQSGAEVKKPGSSVKVSCKASGYKFTSYIIHWVRQAPGQGLEWMGYINPYNEGTRYAQKFQGRVTLTADKSTSTAYMELSSLRSEDTAVYYCARGYYGSSYAMDYWGQGTTVTVSS
VL: DIQMTQSPSSLSASVGDRVTITCSASQGISNYLNWYQQKPGKAIKLLIYDASTLYSGVPSRFSGSGSGTDFTLTISSLQPEDFATYYCQQYSKLPYTFGGGTKVEIK
On to B2, for which the concentration giving a half-maximal response (EC50) turned out to be 0.343 µg/mL in test [1], 0.323 µg/mL in test [2], 0.363 µg/mL in [3] and 0.397 µg/mL in [7]. The “Top(MFI)” value in [1] turned out to be 620 MFI; in test [7] it was 760 MFI. Besides, the results for the Ka in test [4], in test [5] and in [6] were 7.5e+07 M⁻¹, 7.1e+07 M⁻¹ and 7.8e+07 M⁻¹, respectively. The Kd is 13.5 nM in test [4], 14.2 nM in test [5] and 12.8 nM in test [6]. Moreover, the koff in [5] turned out to be 0.0039 s⁻¹; in test [6], 0.00264 s⁻¹. For the same molecule, the on-rate constant (kon) in test [5] was determined as 276000 M⁻¹ s⁻¹; in [6] it was 206000 M⁻¹ s⁻¹.

B3: 445-3 Fab (Fab, V domains shown)
VH: B2 VH with A61N
VL: B2 VL with S24R, G41D, K42G
For B3, the binding result in [8] is “no binding”.

B4: 445-1 (antibody, V domains shown)
VH: B2 VH with E56D, A61N, A72S
VL: B2 VL with A51T, F71Y
On to B4, for which the EC50 in test [1] turned out to be 0.285 µg/mL; in test [2] it was 0.293 µg/mL; in [3], 0.278 µg/mL; in test [9], 0.336 µg/mL. Also, the figures for the “Top(MFI)” value in [1] and in test [9] were 525 MFI and 500 MFI, respectively. The values for the Ka in [4], in test [5] and in test [6] were 5.9e+07 M⁻¹, 5.6e+07 M⁻¹ and 6.1e+07 M⁻¹, respectively. Also, the Kd in test [4] was 17.1 nM; in test [5], 17.8 nM; in test [6], 16.4 nM. Besides, the koff in [5] is 0.00277 s⁻¹; in [6], 0.00389 s⁻¹. Moreover, the on-rate (kon) in test [5] came out at 156000 M⁻¹ s⁻¹; in test [6], 237000 M⁻¹ s⁻¹.

B5: 445-2 with K28T in the heavy chain and S24R in the light chain (antibody, human IgG1, V domains shown)
VH: B2 VH with K28T
VL: B2 VL with S24R
For B5, in test [10], the “fold increase to the EC50 over 445-2” value stood at 1.7 fold. Further, in [7], the EC50 came to 0.66 µg/mL and the “Top(MFI)” value was 750 MFI. Besides, in test [11], the dissociation constant (Kd) was determined as 12.9 nM, the koff turned out to be 0.00574 s⁻¹ and the kon was 444000 M⁻¹ s⁻¹.

B6: 445-3 (antibody, V domains shown)
VH: B2 VH with A61N
VL: B2 VL with S24R, G41D, K42G
B6: the EC50 was found to be 0.174 µg/mL in test [12]; 0.171 µg/mL in [13]; 0.328 µg/mL in [1]; 0.337 µg/mL in test [2]; 0.319 µg/mL in test [3]; 0.462 µg/mL in [7]. Besides, the entries for the “Top(MFI)” value in test [1] and in test [7] were 910 MFI and 990 MFI, respectively. In addition, the figures for the Ka in test [4], in [5] and in [6] were 1.06e+08 M⁻¹, 1.09e+08 M⁻¹ and 1.03e+08 M⁻¹, respectively. Also, the Kd in test [4] was 9.47 nM; in [5], 9.16 nM; in test [6], 9.77 nM; in test [11], 8.51 nM.

B7: 445-2 with Y27G in the heavy chain and S24R in the light chain (antibody, human IgG1, V domains shown)
VH: B2 VH with Y27G
VL: B2 VL with S24R
In the case of B7, in test [14], the “fold increase to the KD over 445-2” value stood at 1.7 fold. Further, in test [7], a half-maximal response (EC50) required 0.755 µg/mL and the “Top(MFI)” value was found to be 630 MFI. For the same molecule, in test [11], the Kd is 21.5 nM, the koff worked out at 0.00135 s⁻¹ and the kon was 62500 M⁻¹ s⁻¹.
